These results are taken from paper PMC9482650, “Quantitative fragmentomics allow affinity mapping of interactomes” (Nature Communications, 2022).

Some targets named below: LIMK2, P53671; NHERF4_4, Q86UT5; IL16_1, Q14005; NHERF4_2, Q86UT5; LAP2, Q96RT1; Inadl_3, Q8NI35; LNX1_3, Q8TBB1; DLG4_2, P78352; FRMPD2_1, Q68DX3.
Test in all cases: holdup assay
Parameters in all cases: key: below the threshold = too weak to quantify, mostly under pKd 3.1 to 4

The target of another test is T1, PDZD2_2, O15018.
T1 sequence (O15018 329-429, limits assumed, looked up): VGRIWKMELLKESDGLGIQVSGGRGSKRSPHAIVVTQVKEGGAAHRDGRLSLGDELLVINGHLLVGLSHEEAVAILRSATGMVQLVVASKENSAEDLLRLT

A further test has as its target T2, LNX2_3, Q8N448.
T2 sequence (Q8N448 463-564, limits assumed, looked up): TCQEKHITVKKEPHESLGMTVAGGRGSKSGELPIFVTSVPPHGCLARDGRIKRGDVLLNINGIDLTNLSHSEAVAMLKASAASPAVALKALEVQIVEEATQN

A further test has as its target T3, TX1BP3, O14907.
T3 sequence (O14907 10-122, limits assumed, looked up): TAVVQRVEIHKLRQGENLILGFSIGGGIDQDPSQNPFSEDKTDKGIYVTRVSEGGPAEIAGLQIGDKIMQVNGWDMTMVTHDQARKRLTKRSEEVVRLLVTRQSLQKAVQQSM

Another test has as its target T4, APBA2_2, Q99767.
T4 sequence (Q99767 654-744, limits assumed, looked up): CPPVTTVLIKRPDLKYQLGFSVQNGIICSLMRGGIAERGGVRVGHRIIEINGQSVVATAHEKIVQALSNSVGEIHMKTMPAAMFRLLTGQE

The next test has as its target T5, NHERF3_3, Q5T2W1.
T5 sequence (Q5T2W1 238-333, limits assumed, looked up): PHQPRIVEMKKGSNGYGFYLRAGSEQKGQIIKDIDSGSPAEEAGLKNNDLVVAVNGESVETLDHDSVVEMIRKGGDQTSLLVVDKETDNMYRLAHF

The target in another test is T6, MPP7, Q5T2T1.
T6 sequence (Q5T2T1 134-230, limits assumed, looked up): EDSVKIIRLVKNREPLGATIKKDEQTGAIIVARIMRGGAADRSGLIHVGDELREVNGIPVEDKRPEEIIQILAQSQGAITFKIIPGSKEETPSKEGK

The target of the next test is T7, FRMPD1, Q5SYB0.
T7 sequence (Q5SYB0 52-145, limits assumed, looked up): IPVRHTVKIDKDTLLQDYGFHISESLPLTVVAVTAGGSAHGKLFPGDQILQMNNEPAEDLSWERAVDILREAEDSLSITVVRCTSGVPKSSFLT

The target of another test is T8, APBA1_2, Q02410.
T8 sequence (Q02410 742-832, limits assumed, looked up): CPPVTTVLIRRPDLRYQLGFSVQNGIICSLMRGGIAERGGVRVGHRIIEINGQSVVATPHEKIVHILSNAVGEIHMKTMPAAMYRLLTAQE

Another test concerns the target T9, NHERF3_4, Q5T2W1.
T9 sequence (Q5T2W1 373-468, limits assumed, looked up): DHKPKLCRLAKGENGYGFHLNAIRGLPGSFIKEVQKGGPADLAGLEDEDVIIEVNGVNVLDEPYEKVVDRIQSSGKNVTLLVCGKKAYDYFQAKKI

A further test addresses T10, MPP6, Q9NZW5.
T10 sequence (Q9NZW5 125-219, limits assumed, looked up): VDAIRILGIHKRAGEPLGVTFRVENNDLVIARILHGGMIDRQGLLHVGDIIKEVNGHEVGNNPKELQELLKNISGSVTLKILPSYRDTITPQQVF

The target of a further test is T11, SHANK1, Q9Y566.
T11 sequence (Q9Y566 658-767, limits assumed, looked up): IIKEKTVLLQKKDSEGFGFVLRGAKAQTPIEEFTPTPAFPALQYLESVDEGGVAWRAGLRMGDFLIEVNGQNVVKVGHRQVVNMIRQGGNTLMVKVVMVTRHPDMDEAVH

The target in a further test is T12, MPDZ_10, O75970.
T12 sequence (O75970 1624-1722, limits assumed, looked up): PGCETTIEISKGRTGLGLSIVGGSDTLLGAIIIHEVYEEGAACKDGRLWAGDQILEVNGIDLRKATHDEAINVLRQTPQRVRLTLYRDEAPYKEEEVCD

In the next test the target is T13, DFNB31_2, Q9P202.
T13 sequence (Q9P202 274-371, limits assumed, looked up): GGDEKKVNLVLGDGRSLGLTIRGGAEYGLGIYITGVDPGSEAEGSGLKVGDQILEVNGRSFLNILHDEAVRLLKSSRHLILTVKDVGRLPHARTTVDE

The next test concerns the target T14, CARD11, Q9BXL7.
T14 sequence (Q9BXL7 662-765, limits assumed, looked up): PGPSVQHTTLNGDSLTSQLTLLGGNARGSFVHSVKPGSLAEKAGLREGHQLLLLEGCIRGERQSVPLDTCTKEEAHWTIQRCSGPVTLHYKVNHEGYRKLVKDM

Setting [1] is: plain residues with an end cap or a label only (N-terminal biotin on a linker: none).
The mark [2] stands for this setting: plain residues with an end cap or a label only (N-terminal biotin on a linker: ahx).
[3] abbreviates: plain residues with an end cap or a label only (N-terminal biotin on a linker: gsgsgs; C-terminal amide).

Sequence of NHERF4_2, Q86UT5 (Q86UT5 220-308): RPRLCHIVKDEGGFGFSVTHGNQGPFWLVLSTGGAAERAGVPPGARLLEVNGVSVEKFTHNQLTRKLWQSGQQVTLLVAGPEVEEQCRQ
Sequence of LAP2, Q96RT1 (Q96RT1 other isoform, or with tags, fused parts or gaps): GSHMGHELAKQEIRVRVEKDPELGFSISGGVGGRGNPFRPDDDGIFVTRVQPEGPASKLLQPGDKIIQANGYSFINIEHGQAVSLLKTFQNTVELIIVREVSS
Sequence of Inadl_3, Q8NI35 (Q8NI35 359-469): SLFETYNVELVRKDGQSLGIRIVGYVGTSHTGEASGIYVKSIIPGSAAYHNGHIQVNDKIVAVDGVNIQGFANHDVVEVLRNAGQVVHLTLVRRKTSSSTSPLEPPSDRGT
Sequence of IL16_1, Q14005 (Q14005 210-306): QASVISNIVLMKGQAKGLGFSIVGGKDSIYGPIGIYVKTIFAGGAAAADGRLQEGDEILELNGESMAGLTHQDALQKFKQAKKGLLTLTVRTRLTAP
Sequence of DLG4_2, P78352 (P78352 155-259): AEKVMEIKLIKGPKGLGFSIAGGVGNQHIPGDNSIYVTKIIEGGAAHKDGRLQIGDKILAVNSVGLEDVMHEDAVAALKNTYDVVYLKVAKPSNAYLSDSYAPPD
Sequence of LIMK2, P53671 (P53671 143-248): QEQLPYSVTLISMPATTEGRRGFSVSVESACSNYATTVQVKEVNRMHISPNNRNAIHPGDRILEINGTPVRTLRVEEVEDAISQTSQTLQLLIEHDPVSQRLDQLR
Sequence of FRMPD2_1, Q68DX3 (Q68DX3 770-861): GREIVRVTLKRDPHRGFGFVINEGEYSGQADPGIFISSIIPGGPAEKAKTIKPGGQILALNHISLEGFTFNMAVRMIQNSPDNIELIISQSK
Sequence of LNX1_3, Q8TBB1 (Q8TBB1 500-596): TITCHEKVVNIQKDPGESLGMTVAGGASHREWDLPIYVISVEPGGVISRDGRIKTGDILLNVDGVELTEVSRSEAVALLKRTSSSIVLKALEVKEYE
Sequence of NHERF4_4, Q86UT5 (Q86UT5 464-550): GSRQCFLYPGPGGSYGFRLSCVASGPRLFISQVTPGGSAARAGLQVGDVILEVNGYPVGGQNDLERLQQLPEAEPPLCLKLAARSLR

B1: SARS-CoV2-E, P0DTC4 (peptide)
chain: NLNSSRVPDLLV
For the molecule B1, the pKd (in general, the Kd on a negative log10 scale, so that one unit is a factor of ten) with PDZD2_2, O15018 (setting [1]) was “below the threshold”; in the test with LNX2_3, Q8N448 (setting [1]), “below the threshold”; with LIMK2, P53671 (setting [1]), “below the threshold”; with TX1BP3, O14907 (setting [1]), “below the threshold”; with APBA2_2, Q99767 (setting [1]), “below the threshold”; with NHERF4_4, Q86UT5 (setting [1]) it was “below the threshold”. Besides, the pKd entry with NHERF3_3, Q5T2W1 (setting [1]) is listed as “below the threshold”; with IL16_1, Q14005 (setting [1]) it was “below the threshold”; with NHERF4_2, Q86UT5 (setting [1]), “below the threshold”; with MPP7, Q5T2T1 (setting [1]), “below the threshold”; with LAP2, Q96RT1 (setting [1]), “below the threshold”; in the test with FRMPD1, Q5SYB0 (setting [1]), “below the threshold”. Further, the negative-log Kd (pKd) entry with APBA1_2, Q02410 (setting [1]) was “below the threshold”; with Inadl_3, Q8NI35 (setting [1]), 3.47; in the test with LNX1_3, Q8TBB1 (setting [1]), “below the threshold”; with NHERF3_4, Q5T2W1 (setting [1]) it was “below the threshold”; with MPP6, Q9NZW5 (setting [1]) it was “below the threshold”; with DLG4_2, P78352 (setting [1]) it was “below the threshold”. Moreover, the pKd entry in the test with FRMPD2_1, Q68DX3 (setting [1]) is listed as “below the threshold”; in the test with SHANK1, Q9Y566 (setting [1]), “below the threshold”; with MPDZ_10, O75970 (setting [1]), “below the threshold”; with DFNB31_2, Q9P202 (setting [1]), “below the threshold”; with CARD11, Q9BXL7 (setting [1]), “below the threshold”.

B2: LNX2, Q8N448 (peptide)
chain: TVICWPGSLV
B2: the pKd is 5.07 in the test with PDZD2_2, O15018 (setting [2]); 3.65 with LNX2_3, Q8N448 (setting [2]); “below the threshold” with LIMK2, P53671 (setting [2]); 4.59 in the test with TX1BP3, O14907 (setting [2]); “below the threshold” with APBA2_2, Q99767 (setting [2]); “below the threshold” in the test with NHERF4_4, Q86UT5 (setting [2]). For the same molecule, the pKd entry is “below the threshold” with NHERF3_3, Q5T2W1 (setting [2]); 4.54 with IL16_1, Q14005 (setting [2]); “below the threshold” with NHERF4_2, Q86UT5 (setting [2]); “below the threshold” with MPP7, Q5T2T1 (setting [2]); 3.86 with LAP2, Q96RT1 (setting [2]); “below the threshold” with FRMPD1, Q5SYB0 (setting [2]). Further, the pKd was 4.39 with APBA1_2, Q02410 (setting [2]); 4.19 with Inadl_3, Q8NI35 (setting [2]); 3.57 with LNX1_3, Q8TBB1 (setting [2]); “below the threshold” in the test with NHERF3_4, Q5T2W1 (setting [2]); “below the threshold” in the test with MPP6, Q9NZW5 (setting [2]); 4.36 in the test with DLG4_2, P78352 (setting [2]). In addition, the pKd in the test with FRMPD2_1, Q68DX3 (setting [2]) is 4.13; with SHANK1, Q9Y566 (setting [2]), 3.48; with MPDZ_10, O75970 (setting [2]) it was 3.9; in the test with DFNB31_2, Q9P202 (setting [2]) it was “below the threshold”; with CARD11, Q9BXL7 (setting [2]) it was “below the threshold”.

B3: DFNB31_int, Q9P202 (peptide)
chain: VSVDDVRSTSQGLSSY
As to B3, the pKd result in the test with PDZD2_2, O15018 (setting [3]) is “below the threshold”; with LNX2_3, Q8N448 (setting [3]) it was “below the threshold”; with LIMK2, P53671 (setting [3]) it was “below the threshold”; with TX1BP3, O14907 (setting [3]), “below the threshold”; with APBA2_2, Q99767 (setting [3]), “below the threshold”; in the test with NHERF4_4, Q86UT5 (setting [3]), “below the threshold”. The pKd result with NHERF3_3, Q5T2W1 (setting [3]) was “below the threshold”; in the test with IL16_1, Q14005 (setting [3]), “below the threshold”; in the test with NHERF4_2, Q86UT5 (setting [3]) it was “below the threshold”; with MPP7, Q5T2T1 (setting [3]), “below the threshold”; with LAP2, Q96RT1 (setting [3]), 3.7; with FRMPD1, Q5SYB0 (setting [3]), “below the threshold”. For the same molecule, the pKd result with APBA1_2, Q02410 (setting [3]) was “below the threshold”; with Inadl_3, Q8NI35 (setting [3]), “below the threshold”; with LNX1_3, Q8TBB1 (setting [3]) it was “below the threshold”; in the test with NHERF3_4, Q5T2W1 (setting [3]), “below the threshold”; in the test with MPP6, Q9NZW5 (setting [3]), 3.65; with DLG4_2, P78352 (setting [3]), “below the threshold”. The pKd entry with FRMPD2_1, Q68DX3 (setting [3]) is “below the threshold”; in the test with SHANK1, Q9Y566 (setting [3]), “below the threshold”; with MPDZ_10, O75970 (setting [3]) it was “below the threshold”; with DFNB31_2, Q9P202 (setting [3]) it was “below the threshold”; with CARD11, Q9BXL7 (setting [3]), “below the threshold”.
